The target in assay [1] is LZ-mDio3^cat: leucine zipper of A. thaliana Hy5 (residues 112-150) fused N-terminally to mouse Dio3 78-304 Sec170Cys (A. thaliana | Mus musculus). The assay can be described thus: native gel or EMSA; Blue Native PAGE, 5% stacking and 12.5% resolving gel, 4 °C; samples from the monomer and the dimer SEC peaks; catalase, BSA and chicken egg albumin as size markers.
Assay [2] shares this target. The assay can be described thus: SEC; size exclusion chromatography of the purified recombinant protein (final purification step); 20 mM Tris/HCl pH 7.5/7.8, 200 mM NaCl, 1 mM TCEP; compared with molecular weight standards.
Assay [3] has as its target mouse iodothyronine deiodinase 2 catalytic domain, residues 71-262 (Sec130Cys) (Mus musculus) (UniProt Q9Z1Y9). The assay can be described thus: native gel or EMSA; Blue Native PAGE, 5% stacking and 12.5% resolving gel, 4 °C; samples from the monomer and the dimer SEC peaks; catalase, BSA and chicken egg albumin as size markers. (In general: A gel shift assay detects complexes by their altered migration in electrophoresis.)

The target is the same in assay [4]. The assay can be described thus: SEC-MALS; SEC with multi angle light scattering of the two species of Dio2-71-262 (Supplementary Figure S3A). (In general: Size exclusion chromatography separates by hydrodynamic size, large species first.)
Assay [5] has the same target. The assay can be described thus: SEC; size exclusion chromatography of the purified recombinant protein (final purification step); 20 mM Tris/HCl pH 7.5/7.8, 200 mM NaCl, 1 mM TCEP; compared with molecular weight standards.
Assay [6] deals with mouse iodothyronine deiodinase 2, residues 49-262 (Mus musculus) (UniProt Q9Z1Y9). The assay can be described thus: not stated; size analysis of the recombinantly produced construct (Supplementary Figure S3C).

What is called stoichiometry N is the number of molecules, sites or subunits per partner or assembly. Consider “LZ-mDio3^cat: leucine zipper of A. thaliana Hy5 (residues 112-150) fused N-terminally to mouse Dio3 78-304 Sec170Cys (from UniProt O24646 112-150; Q91ZI8 78-304)”, for which the stoichiometry N in assay [1] and in assay [2] was 2 throughout.

In the case of “mouse iodothyronine deiodinase 2 catalytic domain, residues 71-262 (Sec130Cys) (from UniProt Q9Z1Y9 71-262) (domain or fragment)”, the stoichiometry N in assay [3], in assay [4] and in assay [5] was 2 each time.

As to “mouse iodothyronine deiodinase 2, residues 49-262 (from UniProt Q9Z1Y9 49-262) (domain or fragment)”, the stoichiometry N in assay [6] was found to be 2.

The values above are taken from paper PMC11592359.
